Test results taken from patent US7026443.
Read-outs that look alike come from different tables or passages of the source.

Tests used:
HLA-A*0201 (human) [1] = assay: competition against 125I-labelled standard peptide on purified HLA-A*0201, gel filtration
HLA-A*0301 (human) [2] = assay: competition with 125I-labelled standard peptide for purified HLA, gel filtration
HLA-A*1101 (human) [3] = assay: as above
HLA-A*3101 (human) = assay: as above
HLA-A*3301 (human) = assay: as above
HLA-A*6801 (human) = assay: as above
HLA-A*2402 (human) = assay: as above
HLA-B*0702 (human) [4] = assay: competition with 125I-labeled standard peptide for purified HLA, gel filtration
HLA-B*3501 (human) [5] = assay: as above
HLA-B*5101 (human) [6] = assay: as above
HLA-B*5301 (human) [7] = assay: as above
HLA-B*5401 (human) [8] = assay: as above
HLA-B*3501 (human) [9] = molecular target: HLA-B*3501 (human)
HLA-B*5101 (human) [10] = molecular target: HLA-B*5101 (human)
HLA-B*5301 (human) [11] = molecular target: HLA-B*5301 (human)
HLA-B*5401 (human) [12] = molecular target: HLA-B*5401 (human)
HLA-A*0301 (human) [13] = assay: competition with 125I-labeled standard probe peptide for purified HLA-A*0301, gel filtration
HLA-A*0301 (human) [14] = assay: competition with 125I-labeled standard peptide for purified HLA, gel filtration
HLA-A*1101 (human) [15] = assay: as above
HLA-A*1101 (human) [16] = assay: competition with 125I-labeled standard probe peptide for purified HLA-A*1101, gel filtration
HLA-A*0201 (human) [17] = assay: competition with 125I-labeled standard probe peptide for purified HLA-A*0201, gel filtration
HLA-B*0702 (human) [18] = molecular target: HLA-B*0702 (human)
[19] = remark: other sources report otherwise

Binder: LLCVSPMCM (modifications not checked) [HPV16 E1 297 …]
- relative binding ratio (IC50 of standard peptide / IC50 of test peptide) (HLA-A*0201 (human) [1]): 0.0008

Binder: LIRCINCQK (modifications not checked)
- binding affinity ratio (IC50 of standard peptide / IC50 of test peptide) (HLA-A*0301 (human) [2]): 0.0025
- binding affinity ratio (IC50 of standard peptide / IC50 of test peptide) (HLA-A*1101 (human) [3]): 0.0009
- binding affinity ratio (IC50 of standard peptide / IC50 of test peptide) (HLA-A*3101 (human)): 0.0012
- binding affinity ratio (IC50 of standard peptide / IC50 of test peptide) (HLA-A*3301 (human)): 0.0041
- binding affinity ratio (IC50 of standard peptide / IC50 of test peptide) (HLA-A*6801 (human)): 0.0021

Binder: PYKLPDLCTEL (modifications not checked) [HPV18 E6 position 11, 11-mer …]
- binding affinity ratio (IC50 of standard peptide / IC50 of test peptide) (HLA-A*2402 (human)): 0.0064

Binder: DPQERPRKL (modifications not checked) [HPV16 E6 11 …]
- binding affinity ratio (IC50 of standard peptide / IC50 of test peptide) (HLA-B*0702 (human) [4]): 0.0001
- binding affinity ratio (IC50 of standard peptide / IC50 of test peptide) (HLA-B*3501 (human) [5]): 0.0001
- binding affinity ratio (IC50 of standard peptide / IC50 of test peptide) (HLA-B*5101 (human) [6]): 0.0001
- binding affinity ratio (IC50 of standard peptide / IC50 of test peptide) (HLA-B*5301 (human) [7]): 0.0001
- binding affinity ratio (IC50 of standard peptide / IC50 of test peptide) (HLA-B*5401 (human) [8]): 0.0002

Binder: LLITSNINA (modifications not checked) [HPV16 E1 562 …]
- relative binding ratio (IC50 of standard peptide / IC50 of test peptide) (HLA-A*0201 (human) [1]): 0.0022

Binder: QPPKLRSSVA (modifications not checked)
- binding affinity ratio (IC50 of standard peptide / IC50 of test peptide) (HLA-B*3501 (human) [9]): 0.0003
- binding affinity ratio (IC50 of standard peptide / IC50 of test peptide) (HLA-B*5101 (human) [10]): 0.0002
- binding affinity ratio (IC50 of standard peptide / IC50 of test peptide) (HLA-B*5301 (human) [11]): 0.0002
- binding affinity ratio (IC50 of standard peptide / IC50 of test peptide) (HLA-B*5401 (human) [12]): 0.039

Binder: IVCPICSQK (modifications not checked) [HPV16 E7 peptide …]
- binding affinity ratio (IC50 of standard peptide / IC50 of test peptide) (HLA-A*0301 (human) [2]; [19]): 0.0077
- binding affinity ratio (IC50 of standard peptide / IC50 of test peptide) (HLA-A*1101 (human) [3]; [19]): 0.0065
- binding affinity ratio (IC50 of standard peptide / IC50 of test peptide) (HLA-A*3301 (human); [19]): 0.0016
- binding affinity ratio (IC50 of standard peptide / IC50 of test peptide) (HLA-A*6801 (human); [19]): 0.01

Binder: VYCKTVLEL (modifications not checked) [HPV18 E6 position 33, 9-mer …]
- binding affinity ratio (IC50 of standard peptide / IC50 of test peptide) (HLA-A*2402 (human)): 0.022

Binder: LACSWGMVV (modifications not checked) [HPV16 E1 267 …]
- relative binding ratio (IC50 of standard peptide / IC50 of test peptide) (HLA-A*0201 (human) [1]): 0.0006

Binder: WPYLHNRLVV (modifications not checked) [HPV16 E1 576 …]
- binding affinity ratio (IC50 of standard peptide / IC50 of test peptide) (HLA-B*0702 (human) [4]): 0.095
- binding affinity ratio (IC50 of standard peptide / IC50 of test peptide) (HLA-B*3501 (human) [5]): 0.0012
- binding affinity ratio (IC50 of standard peptide / IC50 of test peptide) (HLA-B*5101 (human) [6]): 0.074
- binding affinity ratio (IC50 of standard peptide / IC50 of test peptide) (HLA-B*5301 (human) [7]): 0.0002
- binding affinity ratio (IC50 of standard peptide / IC50 of test peptide) (HLA-B*5401 (human) [8]): 0.076

Binder: TTLEQQYNK (modifications not checked)
- binding affinity ratio (IC50 of standard peptide / IC50 of test peptide) (HLA-A*0301 (human) [2]): 0.01
- binding affinity ratio (IC50 of standard peptide / IC50 of test peptide) (HLA-A*1101 (human) [3]): 0.29
- binding affinity ratio (IC50 of standard peptide / IC50 of test peptide) (HLA-A*3301 (human)): 0.066
- binding affinity ratio (IC50 of standard peptide / IC50 of test peptide) (HLA-A*6801 (human)): 0.3

Binder: WLQPLADAK (modifications not checked) [HPV31 E1 489 peptide … (SEQ ID NO: 34685)]
- relative binding ratio (IC50 of standard peptide / IC50 of test peptide) (HLA-A*0301 (human) [13]): 0.0005

Binder: NVLKTSNAK (modifications not checked) [HPV16 E1 peptide … (position 196, 9 amino acids)]
- relative binding ratio (IC50 of standard peptide / IC50 of test peptide) (HLA-A*0301 (human) [14]): 0.0005
- relative binding ratio (IC50 of standard peptide / IC50 of test peptide) (HLA-A*1101 (human) [15]): 0.0015
- binding affinity ratio (IC50 of the standard peptide / IC50 of the test peptide) (HLA-A*0301 (human) [13]): 0.0005

Binder: WLQPLADAK (modifications not checked) [HPV31 E1 489 peptide … (SEQ ID NO: 41921)]
- relative binding ratio (IC50 of standard peptide / IC50 of test peptide) (HLA-A*1101 (human) [16]): 0.0002

Binder: STLRLCVQST (modifications not checked) [HPV31 E7 peptide … (position 63, 10 amino acids)]
- relative binding ratio (IC50 of standard peptide / IC50 of test peptide) (HLA-A*0201 (human) [17]): 0.0012

Binder: RPIVQFLRY (modifications not checked) [HPV45 E1 433 peptide …]
- binding affinity ratio (IC50 of standard peptide / IC50 of test peptide) (ratio relative to standard peptide) (HLA-B*0702 (human) [18]): 0.0033
- binding affinity ratio (IC50 of standard peptide / IC50 of test peptide) (ratio relative to standard peptide) (HLA-B*3501 (human) [9]): 0.04
- binding affinity ratio (IC50 of standard peptide / IC50 of test peptide) (ratio relative to standard peptide) (HLA-B*5301 (human) [11]): 0.023

Binder: QPPKLRSSV (modifications not checked)
- binding affinity ratio (IC50 of standard peptide / IC50 of test peptide) (HLA-B*3501 (human) [9]): 0.0003
- binding affinity ratio (IC50 of standard peptide / IC50 of test peptide) (HLA-B*5101 (human) [10]): 0.0002
- binding affinity ratio (IC50 of standard peptide / IC50 of test peptide) (HLA-B*5301 (human) [11]): 0.0002

Binder: YAVCDKCLK (modifications not checked)
- binding affinity ratio (IC50 of standard peptide / IC50 of test peptide) (HLA-A*0301 (human) [2]): 0.0003
- binding affinity ratio (IC50 of standard peptide / IC50 of test peptide) (HLA-A*1101 (human) [3]): 0.001
- binding affinity ratio (IC50 of standard peptide / IC50 of test peptide) (HLA-A*3101 (human)): 0.0015
- binding affinity ratio (IC50 of standard peptide / IC50 of test peptide) (HLA-A*6801 (human)): 0.012
